The target in assay [1] is T1, mesothelin (human MSLN, isoform 1, SEQ ID NO:50) peptide on HLA-A*02:01 (human).
T1 peptide: VLPLTVAEV
Briefly: multimer staining.

In assay [2] the target is T2, GALP peptide on HLA-A*02:01 (human).
T2 peptide: VLLLSLAET
Briefly: cytokine release.

In assay [3] the target is T3, IN80B peptide on HLA-A*02:01 (human).
T3 peptide: MLPLPVAEG
Briefly: cytokine release.

Assay [4] deals with T4, AL1L1 peptide on HLA-A*02:01 (human).
T4 peptide: VLELTEAEL
Briefly: cytokine release.

In assay [5] the target is T5, MLEC peptide on HLA-A*02:01 (human).
T5 peptide: VLVLKFAEV
Briefly: cytokine release.

Assay [6] addresses T6, OR2J1 peptide on HLA-A*02:01 (human).
T6 peptide: VLALGTAEC
Briefly: cytokine release.

Assay [7] has as its target T7, EHF (peptide #10) peptide on HLA-A*02:01 (human).
T7 peptide: VLLLSLAEI
Briefly: cytokine release.

Assay [8] has as its target T8, CHPF2 peptide on HLA-A*02:01 (human).
T8 peptide: VLPLIVAEA
Briefly: cytokine release.

Assay [9] concerns the target T9, CEAM3 peptide on HLA-A*02:01 (human).
T9 peptide: SMPLSVAEG
Briefly: cytokine release.

The target of assay [10] is T10, YN010 peptide on HLA-A*02:01 (human).
T10 peptide: VLALWEAEV
Briefly: cytokine release.

The target of assay [11] is T11, ULK1 peptide on HLA-A*02:01 (human).
T11 peptide: VLYLKVAEL
Briefly: cytokine release.

In assay [12] the target is T12, DNHD1 peptide on HLA-A*02:01 (human).
T12 peptide: VLELLLAEL
Briefly: cytokine release.

Assay [13] addresses T13, ADPRH peptide on HLA-A*02:01 (human).
T13 peptide: VMHLATAEA
Briefly: cytokine release.

Assay [14] concerns the target T14, OR2J2 peptide on HLA-A*02:01 (human).
T14 peptide: VLALGIAEC
Briefly: cytokine release.

Assay [15] deals with T15, CHPF2 peptide on HLA-A*02:01 (human).
T15 peptide: VLPLLVAEA
Briefly: cytokine release.

Assay [16] deals with T16, LRCH3 peptide on HLA-A*02:01 (human).
T16 peptide: DLPLRVAEI
Briefly: cytokine release.

The target of assay [17] is T17, mesothelin (human MSLN, isoform 1, SEQ ID NO:50) peptide on HLA-A*02:01 (human).
T17 peptide: SLLFLLFSL
Briefly: multimer staining.

The text below walks through data of patent US20220009992A1 (published 2022).

B1: Meso530-11A (TCR, V domains shown)
Valpha: GEDVEQSLFLSVREGDSSVINCTYTDSSSTYLYWYKQEPGAGLQLLTYIFSNMDMKQDQRLTVLLNKKDKHLSLRIADTQTGDSAIYFCAETPGYGGATNKLIFGTGTLLAVQP
Vbeta: DTEVTQTPKHLVMGMTNKKSLKCEQHMGHRAMYWYKQKAKKPPELMFVYSYEKLSINESVPSRFSPECPNSSLLNLHLHALQPEDSALYLCASSHGSLNTEAFFGQGTRLTVV
As for B1, the binding result is reported as “recognises” in assay [1]; “no recognition” in [2]; “no recognition” in assay [3]; “no recognition” in assay [4]; “no recognition” in [5]; “no recognition” in [6]. Moreover, the binding result in [7], in assay [8], in assay [9], in assay [10], in assay [11] and in assay [12] was “no recognition” each time. Also, the binding result in assay [13], in assay [14], in assay [15] and in [16] was “no recognition” throughout.

B2: Meso20-3B (TCR, V domains shown)
Valpha: GQSLEQPSEVTAVEGAIVQINCTYQTSGFYGLSWYQQHDGGAPTFLSYNALDGLEETGRFSSFLSRSDSYGYLLLQELQMKDSASYFCAVNDASKIIFGSGTRLSIRP
Vbeta: DAGVIQSPRHEVTEMGQEVTLRCKPISGHDYLFWYRQTMMRGLELLIYFNNNVPIDDSGMPEDRFSAKMPNASFSTLKIQPSEPRDSAVYFCASSFTSGSYEQYFGPGTRLTVT
In the case of B2, in [17], the binding result is reported as “recognises”.

B3: Meso530-11B (TCR, V domains shown)
Valpha: KQEVTQIPAALSVPEGENLVLNCSFTDSAIYNLQWFRQDPGKGLTSLLLIQSSQREQTSGRLNASLDKSSGRSTLYIAASQPGDSATYLCAVRLLFAQGGSEKLVFGKGTKLTVNP
Vbeta: ETGVTQSPTHLIKTRGQQVTLRCSSQSGHNTVSWYQQALGQGPQFIFQYYREEENGRGNFPPRFSGLQFPNYSSELNVNALELDDSALYLCASSFAGGRSDTQYFGPGTRLTVL
With B3, the binding result in assay [1] was “recognises”; in assay [2], “no recognition”; in assay [3], “no recognition”; in [4] it was “no recognition”; in assay [5], “no recognition”; in assay [6] it was “no recognition”. In addition, the binding result in [8], in assay [9], in assay [10], in assay [11], in assay [12] and in assay [13] was “no recognition” throughout. The binding result in [14], in assay [15] and in assay [16] was “no recognition” in each case.
